Test [1] deals with CI-MPR receptor. The test can be described thus: CIMPR binding assay, PPT1 conditioned media, curves starting at 25 nM, bound PPT1 activity; the table prints no units, units of the axes.
The target of test [2] is CI-MPR receptor. In words: CIMPR binding assay, PPT1 conditioned media, dilution starting at 50 nM, bound PPT1 activity; the table prints no units, units of the axes.

B1: PPT1-105 (enzyme, part only; not given: linker identity, part only)
fusion protein, part: SRALQHLDPPAPLPLVIWHGMGDSCCNPLSMGAIKKMVEKKIPGIYVLSLEIGKTLMEDVENSFFLNVNSQVTTVCQALAKDPKLQQGYNAMGFSQGGQFLRAVAQRCPSPPMINLISVGGQHQGVFGLPRCPGESSHICDFIRKTLNAGAYSKVVQERLVQAEYWHDPIKEDVYRNHSIFLADINQERGINESYKKNLMALKKFVMVKFLNDSIVDPVDSEWFGFYRSGQAKETIPLQETSLYTQDRLGLKEMDNAGQLVFLATEGDHLQLSEEWFYAHIIPFLGRPRAVPTQSRTLCGGELVDTLQFVCGDRGFLFSRGGGGSRGILEECCFRDCDLALLETYCATPARSE
A word on the Kd: it is the concentration at which binding is half-saturated. As for B1, in test [1], the Bmax came out at 73.5 nmol/mL/h and the Kd worked out at 4.45 nM. In test [2], this molecule returned a Bmax of 73.5 nmol/mL/h and a Kd of 4.45 nM.

B2: PPT1-106 (enzyme, part only; not given: linker identity, part only)
fusion protein, part: SRALQHLDPPAPLPLVIWHGMGDSCCNPLSMGAIKKMVEKKIPGIYVLSLEIGKTLMEDVENSFFLNVNSQVTTVCQALAKDPKLQQGYNAMGFSQGGQFLRAVAQRCPSPPMINLISVGGQHQGVFGLPRCPGESSHICDFIRKTLNAGAYSKVVQERLVQAEYWHDPIKEDVYRNHSIFLADINQERGINESYKKNLMALKKFVMVKFLNDSIVDPVDSEWFGFYRSGQAKETIPLQETSLYTQDRLGLKEMDNAGQLVFLATEGDHLQLSEEWFYAHIIPFLGRPRAVPTQSRTLCGGELVDTLQFVCGDRGFLFSRGGGGSRGILEECCFRECDLALLETYCATPARSE
In test [1], B2 yielded a Bmax of 91.4 nmol/mL/h and a Kd of 5.46 nM. In test [2], this molecule had a Bmax of 91.4 nmol/mL/h and a Kd of 5.46 nM.
